# System: Escherichia coli TOP10
# Assay: shrunken log2 fold change of peptide-encoding DNA abundance (4.5 h post-induction vs induction); higher = less antimicrobial activity (less host growth inhibition)
# Settings: time post-induction: 4.5 h; library: site-saturation at positions 5, 18, 19, 20
# 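Further: peptides expressed intracellularly from a pBAD plasmid library in pooled LB shake-flask culture, induced with 0.3% L-arabinose, DNA abundance read by NGS, three biological replicates, DESeq2 with apeglm shrinkage.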
row,Sequence,shrunken log2 fold change
1,RRIRVRPPRLPRPRPRPQCAPRP,0.135
2,RRIRFRPPRLPRPRPRPYIFPRP,-0.829
3,RRIRLRPPRLPRPRPRPTLDPRP,0.0159
4,RRIRCRPPRLPRPRPRPNPNPRP,-0.135
5,RRIRWRPPRLPRPRPRPIESPRP,0.467
6,RRIRVRPPRLPRPRPRPHSKPRP,-0.496
7,RRIRGRPPRLPRPRPRPHWPPRP,2.63
8,RRIRCRPPRLPRPRPRPDTFPRP,0.0257
9,RRIRIRPPRLPRPRPRPGWNPRP,-0.0913
10,RRIRLRPPRLPRPRPRPHGDPRP,-0.0331
11,RRIRLRPPRLPRPRPRPKTVPRP,-0.0699
12,RRIRLRPPRLPRPRPRPSGHPRP,-0.208
13,RRIRVRPPRLPRPRPRPPGVPRP,0.216
14,RRIRLRPPRLPRPRPRPIARPRP,-0.0553
15,RRIRTRPPRLPRPRPRPCPDPRP,-0.283
16,RRIRTRPPRLPRPRPRPNITPRP,-0.664
17,RRIRERPPRLPRPRPRPLKEPRP,-0.0885
18,RRIRIRPPRLPRPRPRPEAYPRP,0.00489
19,RRIRCRPPRLPRPRPRPLTPPRP,0.292
20,RRIRTRPPRLPRPRPRPEQWPRP,-0.0581
21,RRIRDRPPRLPRPRPRPKEHPRP,0.0267
22,RRIRNRPPRLPRPRPRPEMKPRP,-0.188
23,RRIRSRPPRLPRPRPRPGHMPRP,0.0805
24,RRIRCRPPRLPRPRPRPEPVPRP,0.0937
25,RRIRLRPPRLPRPRPRPRTHPRP,0.189

row,Sequence,shrunken log2 fold change
1,RRIRSRPPRLPRPRPRPAIVPRP,0.385
2,RRIRGRPPRLPRPRPRPMRKPRP,1.37
3,RRIRQRPPRLPRPRPRPRGYPRP,-0.00234
4,RRIRGRPPRLPRPRPRPNDRPRP,0.288
5,RRIRIRPPRLPRPRPRPSFMPRP,-0.871
6,RRIRPRPPRLPRPRPRPDHSPRP,-0.082
7,RRIRFRPPRLPRPRPRPLWRPRP,0.32
8,RRIRHRPPRLPRPRPRPQLEPRP,0.0607
9,RRIRVRPPRLPRPRPRPDPHPRP,-0.16
10,RRIRDRPPRLPRPRPRPYIAPRP,-0.652
11,RRIRLRPPRLPRPRPRPENHPRP,-0.126
12,RRIRGRPPRLPRPRPRPEMSPRP,0.25
13,RRIRCRPPRLPRPRPRPKKVPRP,-0.00128
14,RRIRTRPPRLPRPRPRPTMKPRP,-0.334
15,RRIRRRPPRLPRPRPRPRQWPRP,0.169
16,RRIRSRPPRLPRPRPRPEYSPRP,-0.322
17,RRIRLRPPRLPRPRPRPYGRPRP,-0.2
18,RRIRYRPPRLPRPRPRPGTPPRP,1.16
19,RRIRVRPPRLPRPRPRPGSEPRP,0.168
20,RRIRARPPRLPRPRPRPEAFPRP,0.0217
21,RRIRLRPPRLPRPRPRPLCLPRP,-0.392
22,RRIRFRPPRLPRPRPRPWNWPRP,0.0169
23,RRIRDRPPRLPRPRPRPCVQPRP,0.239
24,RRIRLRPPRLPRPRPRPEGVPRP,0.568
25,RRIRMRPPRLPRPRPRPMNCPRP,-0.00776

row,Sequence,shrunken log2 fold change
1,RRIRLRPPRLPRPRPRPRFRPRP,0.117
2,RRIRHRPPRLPRPRPRPDMYPRP,-0.00022
3,RRIRDRPPRLPRPRPRPPSLPRP,-0.128
4,RRIRRRPPRLPRPRPRPACSPRP,0.377
5,RRIRQRPPRLPRPRPRPYGHPRP,-0.473
6,RRIRNRPPRLPRPRPRPHFSPRP,0.0053
7,RRIRGRPPRLPRPRPRPIFIPRP,-0.0812
8,RRIRTRPPRLPRPRPRPGWIPRP,-0.154
9,RRIRMRPPRLPRPRPRPKMHPRP,0.42
10,RRIRMRPPRLPRPRPRPTMAPRP,1.03
11,RRIRRRPPRLPRPRPRPWWKPRP,0.226
12,RRIRYRPPRLPRPRPRPQSFPRP,-0.0418
13,RRIRQRPPRLPRPRPRPESCPRP,-0.0209
14,RRIRYRPPRLPRPRPRPTVWPRP,0.385
15,RRIRRRPPRLPRPRPRPSWFPRP,0.165
16,RRIRLRPPRLPRPRPRPWVDPRP,-0.0575
17,RRIRHRPPRLPRPRPRPVTIPRP,-0.311
18,RRIRPRPPRLPRPRPRPAYHPRP,-0.129
19,RRIRPRPPRLPRPRPRPHKMPRP,-0.403
20,RRIRRRPPRLPRPRPRPKGAPRP,0.28
21,RRIRARPPRLPRPRPRPHRYPRP,-0.147
22,RRIRVRPPRLPRPRPRPCVPPRP,0.124
23,RRIRNRPPRLPRPRPRPMHSPRP,-0.0169
24,RRIRVRPPRLPRPRPRPFDWPRP,-0.103
25,RRIRNRPPRLPRPRPRPAGMPRP,-0.126

# From the supplement of paper PMC9112550, “Optimization of the antimicrobial peptide Bac7 by deep mutational scanning” (BMC Biology, 2022)
